Data from patent US20220396635A1 (UNIVERSIT T STUTTGART, published 2022).

B1: scDb/scFv-Fc (1-2)+1, trivalent bispecific anti-EGFRxanti-CD3 (bispecific antibody)
chain 1: EVQLVESGGGLVQPGGSLRLSCAASGFSLTNYGVHWVRQAPGKGLEWLGVIWSGGNTDYNTPFTSRFTISRDNSKNTLYLQMNSLRAEDTAVYYCARALTYYDYEFAYWGQGTTVTVSSGGGGSDIQMTQSPSSLSASVGDRVTITCRASQDIRNYLNWYQQKPGKAPKLLIYYTSRLHSGVPSRFSGSGSGTDFTFTISSLQPEDIATYYCQQGNTLPWTFGQGTKLEIKRGGGGSGGGGSGGGGSQVQLVQSGAEVKKPGSSVKVSCKASGGTFSGYTMNWVRQAPGQGLEWMGLINPYKGVSTYNGKFKDRVTITADKSTSTAYMELSSLRSEDTAVYYCARSGYYGDSDWYFDVWGQGTLVTVSSGGGGSDIQLTQSPSFLSASVGDRVTITCRASQSIGTNIHWYQQKPGKAPKLLIKYASESISGVPSRFSGSGSGTEFTLTISSLQPEDFATYYCQQNNNWPTTFGAGTKLEIKRAAADKTHTCPPCPAPPVAGPSVFLFPPKPKDTLMISRTPEVTCVVVDVSHEDPEVKFNWYVDGVEVHNAKTKPREEQYNSTYRVVSVLTVLHQDWLNGKEYKCKVSNKGLPSSIEKTISKAKGQPREPQVCTLPPSRDELTKNQVSLSCAVKGFYPSDIAVEWESNGQPENNYKTTPPVLDSDGSFFLVSKLTVDKSRWQQGNVFSCSVMHEALHNHYTQKSLSLSPGK
chain 2: EVQLVESGGGLVQPGGSLRLSCAASGFSLTNYGVHWVRQAPGKGLEWLGVIWSGGNTDYNTPFTSRFTISRDNSKNTLYLQMNSLRAEDTAVYYCARALTYYDYEFAYWGQGTTVTVSSGGGGSGGGGSGGGGSDIQLTQSPSFLSASVGDRVTITCRASQSIGTNIHWYQQKPGKAPKLLIKYASESISGVPSRFSGSGSGTEFTLTISSLQPEDFATYYCQQNNNWPTTFGAGTKLEIKRAAADKTHTCPPCPAPPVAGPSVFLFPPKPKDTLMISRTPEVTCVVVDVSHEDPEVKFNWYVDGVEVHNAKTKPREEQYNSTYRVVSVLTVLHQDWLNGKEYKCKVSNKGLPSSIEKTISKAKGQPREPQVYTLPPCRDELTKNQVSLWCLVKGFYPSDIAVEWESNGQPENNYKTTPPVLDSDGSFFLYSKLTVDKSRWQQGNVFSCSVMHEALHNHYTQKSLSLSPGK
notes: also called scDbhu225xhuU3-Fc(hole)Δab + scFvhu225-Fc(knob)Δab
B2: scDb/scFv-Fc (2-1)+1, trivalent bispecific anti-EGFRxanti-CD3 (bispecific antibody)
chain 1: QVQLVQSGAEVKKPGSSVKVSCKASGGTFSGYTMNWVRQAPGQGLEWMGLINPYKGVSTYNGKFKDRVTITADKSTSTAYMELSSLRSEDTAVYYCARSGYYGDSDWYFDVWGQGTLVTVSSGGGGSDIQLTQSPSFLSASVGDRVTITCRASQSIGTNIHWYQQKPGKAPKLLIKYASESISGVPSRFSGSGSGTEFTLTISSLQPEDFATYYCQQNNNWPTTFGAGTKLEIKRGGGGSGGGGSGGGGSEVQLVESGGGLVQPGGSLRLSCAASGFSLTNYGVHWVRQAPGKGLEWLGVIWSGGNTDYNTPFTSRFTISRDNSKNTLYLQMNSLRAEDTAVYYCARALTYYDYEFAYWGQGTTVTVSSGGGGSDIQMTQSPSSLSASVGDRVTITCRASQDIRNYLNWYQQKPGKAPKLLIYYTSRLHSGVPSRFSGSGSGTDFTFTISSLQPEDIATYYCQQGNTLPWTFGQGTKLEIKRAAADKTHTCPPCPAPPVAGPSVFLFPPKPKDTLMISRTPEVTCVVVDVSHEDPEVKFNWYVDGVEVHNAKTKPREEQYNSTYRVVSVLTVLHQDWLNGKEYKCKVSNKGLPSSIEKTISKAKGQPREPQVCTLPPSRDELTKNQVSLSCAVKGFYPSDIAVEWESNGQPENNYKTTPPVLDSDGSFFLVSKLTVDKSRWQQGNVFSCSVMHEALHNHYTQKSLSLSPGK
chain 2: B1 chain 2
notes: also called scDbhuU3xhu225-Fc(hole)Δab + scFvhu225-Fc(knob)Δab
B3: scDb/Fab-Fc (1-2)+1, trivalent bispecific anti-EGFRxanti-CD3 (bispecific antibody)
chain: B1 chain 1
heavy: EVQLVESGGGLVQPGGSLRLSCAASGFSLTNYGVHWVRQAPGKGLEWLGVIWSGGNTDYNTPFTSRFTISRDNSKNTLYLQMNSLRAEDTAVYYCARALTYYDYEFAYWGQGTTVTVSSASTKGPSVFPLAPSSKSTSGGTAALGCLVKDYFPEPVTVSWNSGALTSGVHTFPAVLQSSGLYSLSSVVTVPSSSLGTQTYICNVNHKPSNTKVDKKVEPKSCGTDKTHTCPPCPAPPVAGPSVFLFPPKPKDTLMISRTPEVTCVVVDVSHEDPEVKFNWYVDGVEVHNAKTKPREEQYNSTYRVVSVLTVLHQDWLNGKEYKCKVSNKGLPSSIEKTISKAKGQPREPQVYTLPPCRDELTKNQVSLWCLVKGFYPSDIAVEWESNGQPENNYKTTPPVLDSDGSFFLYSKLTVDKSRWQQGNVFSCSVMHEALHNHYTQKSLSLSPGK
light: DIQLTQSPSFLSASVGDRVTITCRASQSIGTNIHWYQQKPGKAPKLLIKYASESISGVPSRFSGSGSGTEFTLTISSLQPEDFATYYCQQNNNWPTTFGAGTKLEIKRTVAAPSVFIFPPSDEQLKSGTASVVCLLNNFYPREAKVQWKVDNALQSGNSQESVTEQDSKDSTYSLSSTLTLSKADYEKHKVYACEVTHQGLSSPVTKSFNRGEC
notes: also called scDbhu225xhuU3-Fc(hole)Δab + Fdhu225-Fc(knob)Δab + VLhu225-CLκ
B4: scDb/Fab-Fc (2-1)+1, trivalent bispecific anti-EGFRxanti-CD3 (bispecific antibody)
chain: B2 chain 1
heavy: B3 heavy
light: B3 light
notes: also called scDbhuU3xhu225-Fc(hole)Δab + Fdhu225-Fc(knob)Δab + VLhu225-CLκ

target: T1, EGFR (UniProt P00533 25-1210, limits assumed); assay: flow cytometry, serial dilution on T-47-D cells (EGFR-expressing), PE anti-human Fc detection
T1 construct: whole, on cells; the cell lines are human tumor lines
Protocol: (§1) Binding analysis of the trivalent, bispecific antibodies was performed by flow cytometry using tumor cell lines with different EGFR-expression levels (FIG. 20) (Table 12). Adherent cells were washed with PBS and shortly trypsinized at 37° C. Trypsin was quenched with FCS-containing medium and removed by centrifugation (500×g, 5 min.). Target cells (FaDu, LIM1215, SKBR-3, T-47-D, MCF-7 and Jurkat cells) at 1×10⁵ cells/well were incubated with a serial dilution of trivalent, bispecific antibodies for 1 h at 4° C. After removing excess of recombinant protein by washing with PBA (PBS, 2% FBS, and 0.02% sodium azide), bound protein was detected using PE-conjugated anti-human Fc mAb (Jackson ImmunoResearch Laboratories Inc). Fluorescence was measured using MACSquant VYB (Miltenyi Biotec) and data were analyzed using FlowJo (Tree Star). Relative median fluorescence intensities (MFI) were calculated as followed: relative MFI=((MFIₛₐₘₚₗₑ-(MFIdetection-MFIcells))/MFIcells).

EC50 [nM] | Binder
0.02 | B1
0.1 | B2
0.03 | B3
0.03 | B4

target: T1, EGFR; assay: flow cytometry, serial dilution on MCF-7 cells (EGFR-expressing), PE anti-human Fc detection
Protocol: as §1

EC50 [nM] | Binder
0.03 | B1
0.1 | B2
0.04 | B3
0.03 | B4

target: T2, CD3 (UniProt P07766 23-207); assay: flow cytometry, serial dilution on Jurkat cells (CD3-expressing), PE anti-human Fc detection
T2 construct: whole, on cells; on cells it stands in the TCR/CD3 complex; also called CD3 on Jurkat cells
Protocol: as §1

EC50 [nM] | Binder
9.6 | B1
16.3 | B2
1 | B3
1.4 | B4

target: T1, EGFR; assay: flow cytometry, serial dilution on SKBR-3 cells (EGFR-expressing), PE anti-human Fc detection
Protocol: as §1

EC50 [nM] | Binder
0.09 | B1
0.1 | B2
0.1 | B3
0.1 | B4

target: T1, EGFR; assay: cell-based or functional assay

Binder | EC50 of PBMC cytotoxicity on FaDu cells, E:T 5:1 [nM] | EC50 of PBMC cytotoxicity on SKBR-3 cells, E:T 5:1 [nM]
B1 | 0.026 | 0.126
B2 | 0.027 | 0.277
B3 | 0.05 | 0.209
B4 | 0.056 | 0.209

target: T1, EGFR; assay: flow cytometry, serial dilution on FaDu cells (EGFR-expressing), PE anti-human Fc detection
Protocol: as §1

EC50 [nM] | Binder
1.1 | B1
0.7 | B2
0.2 | B3
0.2 | B4

target: T1, EGFR; assay: flow cytometry, serial dilution on LIM1215 cells (EGFR-expressing), PE anti-human Fc detection
Protocol: as §1

EC50 [nM] | Binder
0.2 | B1
0.2 | B2
0.2 | B3
0.2 | B4
